The text below walks through data of patent US8785384B2, “Peptide synthesis” (Chemical & Biopharmaceutical Laboratories of Patras, priority 2010, dated 2014).

Series [1] in a line: Solubility of relaxin B-chains (methionine sulphoxide vs non-oxidised). Type of series: physicochemical, human. To be noted: compared with RLX1B and RLX2B respectively / non-oxidised analogue.
The conditions of series [2]: background statement on earlier attempts at synthetic human relaxins; cited from earlier work.

Where no end group is shown, it is not given here. [ ]: non-standard residue; d: D form. Met(O) = CS(=O)CC[C@H](N)C(=O)O

Turning to “Met(O)^24-RLX1B: Met(O)^24-human relaxin 1 B-chain, SEQ ID NO: 6; linear (compound 9) or cyclic (compound 10) form not specified (KWKDDVIKLCGRELVRAQIAICG[Met(O)]STWS; not fully specified; cysteine pairing not given here; listed as Homo sapiens)”, in series [1], the “solubility relative to the corresponding non-oxidised B-chain” value is reported as “higher solubility”.
The same measure, in the same setting: the value for “Met(O)^25-RLX2B: Met(O)^25-human relaxin 2 B-chain, SEQ ID NO: 7; linear (compound 13) or cyclic (compound 14) form not specified” was “higher solubility”.
Consider “RLX1B: Chain B of human relaxin-1, SEQ ID NO: 3 (KWKDDVIKLCGRELVRAQIAICGMSTWS; listed as Homo sapiens)”, for which the “solubility of non-oxidised B-chain” value in series [2] is “highly insoluble or hydrophobic”.
As to “RLX2B: Chain B of human relaxin-2, SEQ ID NO: 5”, the “solubility of non-oxidised B-chain” value in series [2] is on record as “highly insoluble or hydrophobic”.
